Measurements as given in patent publication US20090156496A1, “METHODS AND COMPOSITIONS FOR TREATING AND PREVENTING PERIPHERAL NERVE DAMAGE” (CHILDREN'S MEDICAL CENTER CORPORATION, INC., priority 2006, published 2009).

Tests used:
[1] = target: high-affinity oncomodulin receptor on retinal ganglion cells (RGCs) (rat); test: displacement of AP-OM (40 nM, equilibrium binding) from RGCs by unlabeled oncomodulin
[2] = target: high-affinity oncomodulin receptor on retinal ganglion cells (RGCs) (rat); test: cell-based or functional assay
[3] = target: high-affinity oncomodulin receptor on retinal ganglion cells (RGCs) (rat); test: AP-OM binding to lightly fixed, forskolin-treated immunopurified rat RGCs; saturation curve and Scatchard plot
[4] = target: high-affinity oncomodulin receptor on retinal ganglion cells (RGCs) (rat); test: AP-OM binding to lightly fixed, forskolin-treated immunopurified rat RGCs; saturation curve

IC50 [1] | effective concentration for half-maximum response (EC50) of axon outgrowth from RGCs [2] | Kd [3] | concentration at which binding saturated [4] | Substance
30 nM | 3.8 nM | – | – | recombinant rat oncomodulin (from UniProt P02631 2-109) (ligand)
– | – | 28 nM | > 100 nM | alkaline phosphatase (AP)-oncomodulin fusion protein (from UniProt P02631 1-109) (ligand)
